Assay results as given in the supplement of paper PMC10065799, “High-throughput profiling of sequence recognition by tyrosine kinases and SH2 domains using bacterial peptide display” (eLife, 2023).
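Further: 11-residue human phosphosite peptides and single-mutation variants displayed on the E. coli surface, counted by deep sequencing, each peptide's frequency after selection divided by its frequency in the unselected input library; frequency after pTyr selection over input frequency; kinase dosed for 20-30% of maximal phosphorylation in three min.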

What follows are sequences tested against FGFR1 (UniProt P11362) (assay: phosphorylation enrichment, bacterial display (enrichment ratio); higher = better substrate or ligand; peptides without Tyr show the background).
FGFR1, sequence (P11362 whole entry, looked up): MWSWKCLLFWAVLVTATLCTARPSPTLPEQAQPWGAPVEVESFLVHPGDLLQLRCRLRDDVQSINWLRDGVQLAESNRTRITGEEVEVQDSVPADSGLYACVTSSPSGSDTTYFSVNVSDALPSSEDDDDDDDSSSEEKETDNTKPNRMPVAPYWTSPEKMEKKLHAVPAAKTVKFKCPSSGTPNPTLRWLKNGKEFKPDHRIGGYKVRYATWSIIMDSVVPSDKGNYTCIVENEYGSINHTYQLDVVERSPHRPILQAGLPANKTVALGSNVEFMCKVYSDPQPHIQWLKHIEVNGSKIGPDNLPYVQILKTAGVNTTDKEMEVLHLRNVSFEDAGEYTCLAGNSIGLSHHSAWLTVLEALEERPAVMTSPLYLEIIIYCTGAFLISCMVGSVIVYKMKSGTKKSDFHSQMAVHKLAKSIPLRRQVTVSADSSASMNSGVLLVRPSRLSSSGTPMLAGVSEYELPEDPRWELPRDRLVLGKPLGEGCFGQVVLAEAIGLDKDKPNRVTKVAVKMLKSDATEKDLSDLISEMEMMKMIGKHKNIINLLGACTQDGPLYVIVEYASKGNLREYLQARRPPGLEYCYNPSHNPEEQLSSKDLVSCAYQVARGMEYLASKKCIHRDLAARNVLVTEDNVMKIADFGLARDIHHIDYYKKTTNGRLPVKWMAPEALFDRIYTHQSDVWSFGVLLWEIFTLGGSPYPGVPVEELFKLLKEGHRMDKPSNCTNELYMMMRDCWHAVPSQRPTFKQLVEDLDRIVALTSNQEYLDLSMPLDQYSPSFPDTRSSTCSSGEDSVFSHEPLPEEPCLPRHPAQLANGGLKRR
For RLPSGYGLAFR [DLK1_Y262_YF], the phosphorylation enrichment was 0.422.
For KWLEQYTQAIE [LSP1_Y234_Q229K], the phosphorylation enrichment was 0.472.
For HHFAAYFQQGD [GPI_Y351_R347H], the phosphorylation enrichment was 0.669.
Work on EFGRRYGFSCQ [CCDC93_Y209_R213C_YF] yielded a phosphorylation enrichment of 0.629.
YPQARYHWLVL [APTX_Y214_K211Q] showed a phosphorylation enrichment of 1.96.
CERFSYFGMKA [SLC15A2_Y60_YF] was tested, and the phosphorylation enrichment was 1.24.
WFKKFYDANFD [MAPRE2_Y158_YF] was tested, and the phosphorylation enrichment was 0.378.
PLQKIYNFNVL [SLC4A1_Y553_T552I_YF] gave a phosphorylation enrichment of 0.793.
IYLADYRIMEG [ALOX12B_Y318] showed a phosphorylation enrichment of 2.63.
For PESIMYWKFTT [NTRK3_Y744_R745W], the phosphorylation enrichment was 1.09.
QTLEAYIRWNK [SPAST_Y604] gave a phosphorylation enrichment of 0.615.
SGGMDYGMVGG [TNRC6B_Y1382] showed a phosphorylation enrichment of 0.404.
Sequence RKKEEYKMALF [F8_Y1990_YF] has a phosphorylation enrichment of 0.4.
Work on GPIEVYLCPEE [E2F3_Y349] yielded a phosphorylation enrichment of 0.462.
Sequence TFYQMYDKGLV [IARS2_Y231] has a phosphorylation enrichment of 0.986.
With KAIMTYVFSFF [ACTN4_Y260_S262F_YF] the phosphorylation enrichment was 0.443.
In the case of ILGRTYFVNHE [NEDD4_Y627_YF], the phosphorylation enrichment is reported as 0.43.
TDEFEYDELIV [TGM1_Y136_YF] was tested, and the phosphorylation enrichment was 1.69.
GYRVYYTPDSR [PTPRF_Y451] showed a phosphorylation enrichment of 0.73.
EEQKKYFNAVK [SCN5A_Y1494_M1498V_YF] gave a phosphorylation enrichment of 0.358.
PSFSEYASVQV [SIRPA_Y496] gave a phosphorylation enrichment of 1.05.
In the case of WCKPPYFSCAV [MMS22L_Y28], the phosphorylation enrichment is reported as 0.512.
Work on ALAAPYVLYPG [CEFIP_Y1332] yielded a phosphorylation enrichment of 3.98.
Work on GENTVYAQVFN [LY9_Y603_M602V] yielded a phosphorylation enrichment of 0.599.
GFRPVYSEDEQ [CHST6_Y362_YF] gave a phosphorylation enrichment of 0.584.
IHETTYNSIKK [ACTA1_Y281_M285K] showed a phosphorylation enrichment of 0.467.
GDNNIYVTKII [DLG1_Y349_S347N] showed a phosphorylation enrichment of 0.574.
HCHEGYVLHGA [SVEP1_Y2921_I2922V] was tested, and the phosphorylation enrichment was 1.11.
VKANTYEKYWP [GATM_Y100] showed a phosphorylation enrichment of 0.454.
Work on PLQKTYNHNVL [SLC4A1_Y553_Y555H] yielded a phosphorylation enrichment of 0.479.
WRVISYHVVVW [ATP13A2_Y50_G49S] was tested, and the phosphorylation enrichment was 0.554.
VNFGAYINDFK [GLB1_Y488_YF] showed a phosphorylation enrichment of 0.459.
For EVKRLYGSVCD [TC2N_Y154], the phosphorylation enrichment was 0.475.

Each sequence was assayed against Fyn (UniProt P06241) in the same assay as above.
Fyn, sequence (P06241 whole entry, looked up): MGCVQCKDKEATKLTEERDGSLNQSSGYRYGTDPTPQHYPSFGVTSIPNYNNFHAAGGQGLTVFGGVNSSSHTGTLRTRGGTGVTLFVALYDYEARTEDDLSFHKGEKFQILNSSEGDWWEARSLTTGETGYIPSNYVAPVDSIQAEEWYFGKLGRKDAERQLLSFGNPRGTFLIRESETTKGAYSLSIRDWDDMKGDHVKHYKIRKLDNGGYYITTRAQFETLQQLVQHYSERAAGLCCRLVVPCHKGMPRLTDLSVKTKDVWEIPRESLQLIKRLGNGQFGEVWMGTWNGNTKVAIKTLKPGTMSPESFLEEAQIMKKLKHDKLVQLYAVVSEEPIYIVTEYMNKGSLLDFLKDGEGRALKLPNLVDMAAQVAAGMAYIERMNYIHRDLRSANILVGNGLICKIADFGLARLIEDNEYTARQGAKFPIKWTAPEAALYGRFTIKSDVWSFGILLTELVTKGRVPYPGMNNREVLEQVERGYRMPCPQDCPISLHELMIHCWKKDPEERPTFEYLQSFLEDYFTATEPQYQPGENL
RLPSGYGLAFR [DLK1_Y262_YF] gave a phosphorylation enrichment of 0.549.
For KWLEQYTQAIE [LSP1_Y234_Q229K], the phosphorylation enrichment was 0.454.
Sequence HHFAAYFQQGD [GPI_Y351_R347H] has a phosphorylation enrichment of 0.418.
Sequence EFGRRYGFSCQ [CCDC93_Y209_R213C_YF] has a phosphorylation enrichment of 0.547.
Work on YPQARYHWLVL [APTX_Y214_K211Q] yielded a phosphorylation enrichment of 0.449.
CERFSYFGMKA [SLC15A2_Y60_YF] was tested, and the phosphorylation enrichment was 0.529.
Sequence WFKKFYDANFD [MAPRE2_Y158_YF] has a phosphorylation enrichment of 0.37.
Work on PLQKIYNFNVL [SLC4A1_Y553_T552I_YF] yielded a phosphorylation enrichment of 1.43.
Sequence IYLADYRIMEG [ALOX12B_Y318] has a phosphorylation enrichment of 0.738.
Sequence PESIMYWKFTT [NTRK3_Y744_R745W] has a phosphorylation enrichment of 1.85.
QTLEAYIRWNK [SPAST_Y604] gave a phosphorylation enrichment of 0.452.
With SGGMDYGMVGG [TNRC6B_Y1382] the phosphorylation enrichment was 2.
For RKKEEYKMALF [F8_Y1990_YF], the phosphorylation enrichment was 0.31.
With GPIEVYLCPEE [E2F3_Y349] the phosphorylation enrichment was 0.525.
TFYQMYDKGLV [IARS2_Y231] was tested, and the phosphorylation enrichment was 3.3.
KAIMTYVFSFF [ACTN4_Y260_S262F_YF] was tested, and the phosphorylation enrichment was 0.464.
Sequence ILGRTYFVNHE [NEDD4_Y627_YF] has a phosphorylation enrichment of 0.392.
For TDEFEYDELIV [TGM1_Y136_YF], the phosphorylation enrichment was 1.59.
GYRVYYTPDSR [PTPRF_Y451] was tested, and the phosphorylation enrichment was 1.24.
For EEQKKYFNAVK [SCN5A_Y1494_M1498V_YF], the phosphorylation enrichment was 0.506.
In the case of PSFSEYASVQV [SIRPA_Y496], the phosphorylation enrichment is reported as 2.49.
WCKPPYFSCAV [MMS22L_Y28] was tested, and the phosphorylation enrichment was 0.459.
ALAAPYVLYPG [CEFIP_Y1332] gave a phosphorylation enrichment of 0.694.
GENTVYAQVFN [LY9_Y603_M602V] was tested, and the phosphorylation enrichment was 6.74.
GFRPVYSEDEQ [CHST6_Y362_YF] was tested, and the phosphorylation enrichment was 0.592.
Sequence IHETTYNSIKK [ACTA1_Y281_M285K] has a phosphorylation enrichment of 0.391.
GDNNIYVTKII [DLG1_Y349_S347N] gave a phosphorylation enrichment of 0.894.
HCHEGYVLHGA [SVEP1_Y2921_I2922V] gave a phosphorylation enrichment of 0.789.
Sequence VKANTYEKYWP [GATM_Y100] has a phosphorylation enrichment of 1.32.
With PLQKTYNHNVL [SLC4A1_Y553_Y555H] the phosphorylation enrichment was 0.531.
With WRVISYHVVVW [ATP13A2_Y50_G49S] the phosphorylation enrichment was 0.453.
In the case of VNFGAYINDFK [GLB1_Y488_YF], the phosphorylation enrichment is reported as 0.498.
Work on EVKRLYGSVCD [TC2N_Y154] yielded a phosphorylation enrichment of 0.695.

These sequences were tested on c-Src in the same assay as above.
In the case of RLPSGYGLAFR [DLK1_Y262_YF], the phosphorylation enrichment is reported as 0.478.
In the case of KWLEQYTQAIE [LSP1_Y234_Q229K], the phosphorylation enrichment is reported as 0.452.
HHFAAYFQQGD [GPI_Y351_R347H] showed a phosphorylation enrichment of 0.725.
EFGRRYGFSCQ [CCDC93_Y209_R213C_YF] gave a phosphorylation enrichment of 0.468.
Work on YPQARYHWLVL [APTX_Y214_K211Q] yielded a phosphorylation enrichment of 0.411.
For CERFSYFGMKA [SLC15A2_Y60_YF], the phosphorylation enrichment was 0.575.
WFKKFYDANFD [MAPRE2_Y158_YF] showed a phosphorylation enrichment of 0.368.
Sequence PLQKIYNFNVL [SLC4A1_Y553_T552I_YF] has a phosphorylation enrichment of 2.63.
IYLADYRIMEG [ALOX12B_Y318] was tested, and the phosphorylation enrichment was 1.16.
PESIMYWKFTT [NTRK3_Y744_R745W] showed a phosphorylation enrichment of 3.1.
QTLEAYIRWNK [SPAST_Y604] showed a phosphorylation enrichment of 0.488.
SGGMDYGMVGG [TNRC6B_Y1382] gave a phosphorylation enrichment of 1.95.
For RKKEEYKMALF [F8_Y1990_YF], the phosphorylation enrichment was 0.555.
Work on GPIEVYLCPEE [E2F3_Y349] yielded a phosphorylation enrichment of 0.683.
TFYQMYDKGLV [IARS2_Y231] showed a phosphorylation enrichment of 3.71.
For KAIMTYVFSFF [ACTN4_Y260_S262F_YF], the phosphorylation enrichment was 0.425.
For ILGRTYFVNHE [NEDD4_Y627_YF], the phosphorylation enrichment was 0.467.
TDEFEYDELIV [TGM1_Y136_YF] gave a phosphorylation enrichment of 0.716.
GYRVYYTPDSR [PTPRF_Y451] showed a phosphorylation enrichment of 1.54.
In the case of EEQKKYFNAVK [SCN5A_Y1494_M1498V_YF], the phosphorylation enrichment is reported as 0.383.
In the case of PSFSEYASVQV [SIRPA_Y496], the phosphorylation enrichment is reported as 2.35.
WCKPPYFSCAV [MMS22L_Y28] gave a phosphorylation enrichment of 0.459.
Work on ALAAPYVLYPG [CEFIP_Y1332] yielded a phosphorylation enrichment of 4.26.
Sequence GENTVYAQVFN [LY9_Y603_M602V] has a phosphorylation enrichment of 5.05.
GFRPVYSEDEQ [CHST6_Y362_YF] showed a phosphorylation enrichment of 0.836.
For IHETTYNSIKK [ACTA1_Y281_M285K], the phosphorylation enrichment was 0.442.
In the case of GDNNIYVTKII [DLG1_Y349_S347N], the phosphorylation enrichment is reported as 0.93.
In the case of HCHEGYVLHGA [SVEP1_Y2921_I2922V], the phosphorylation enrichment is reported as 0.527.
VKANTYEKYWP [GATM_Y100] gave a phosphorylation enrichment of 2.02.
Sequence PLQKTYNHNVL [SLC4A1_Y553_Y555H] has a phosphorylation enrichment of 0.686.
In the case of WRVISYHVVVW [ATP13A2_Y50_G49S], the phosphorylation enrichment is reported as 0.63.
VNFGAYINDFK [GLB1_Y488_YF] gave a phosphorylation enrichment of 0.369.
EVKRLYGSVCD [TC2N_Y154] was tested, and the phosphorylation enrichment was 0.656.

What follows are sequences tested against EPHB1 (UniProt P54762) in the same assay as above.
EPHB1, sequence (P54762 whole entry, looked up): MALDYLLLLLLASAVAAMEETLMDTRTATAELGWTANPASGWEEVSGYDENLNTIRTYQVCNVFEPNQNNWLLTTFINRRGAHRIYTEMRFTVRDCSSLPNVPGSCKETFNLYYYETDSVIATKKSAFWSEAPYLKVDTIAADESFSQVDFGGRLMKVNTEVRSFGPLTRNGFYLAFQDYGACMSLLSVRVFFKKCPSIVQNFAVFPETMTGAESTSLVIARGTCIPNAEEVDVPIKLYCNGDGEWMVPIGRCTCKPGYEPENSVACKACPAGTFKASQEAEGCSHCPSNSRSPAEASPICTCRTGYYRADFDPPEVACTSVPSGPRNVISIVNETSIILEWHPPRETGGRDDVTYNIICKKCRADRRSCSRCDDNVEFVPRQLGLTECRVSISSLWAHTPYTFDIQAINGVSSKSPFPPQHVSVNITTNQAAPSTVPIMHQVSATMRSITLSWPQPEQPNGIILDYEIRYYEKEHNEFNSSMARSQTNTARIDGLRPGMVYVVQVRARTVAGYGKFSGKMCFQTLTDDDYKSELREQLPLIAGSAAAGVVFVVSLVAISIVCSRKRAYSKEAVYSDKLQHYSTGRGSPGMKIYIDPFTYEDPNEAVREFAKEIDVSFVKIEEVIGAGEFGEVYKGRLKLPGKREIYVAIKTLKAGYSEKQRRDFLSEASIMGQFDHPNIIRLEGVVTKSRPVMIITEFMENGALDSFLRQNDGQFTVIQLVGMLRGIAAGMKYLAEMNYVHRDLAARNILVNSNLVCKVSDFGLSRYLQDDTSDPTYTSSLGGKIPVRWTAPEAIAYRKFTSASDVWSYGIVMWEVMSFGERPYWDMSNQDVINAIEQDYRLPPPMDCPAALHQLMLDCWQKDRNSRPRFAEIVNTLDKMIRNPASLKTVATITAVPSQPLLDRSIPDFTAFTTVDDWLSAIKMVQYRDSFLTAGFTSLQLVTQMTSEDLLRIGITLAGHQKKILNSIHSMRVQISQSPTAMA
Work on RLPSGYGLAFR [DLK1_Y262_YF] yielded a phosphorylation enrichment of 0.416.
For KWLEQYTQAIE [LSP1_Y234_Q229K], the phosphorylation enrichment was 0.499.
HHFAAYFQQGD [GPI_Y351_R347H] gave a phosphorylation enrichment of 0.581.
EFGRRYGFSCQ [CCDC93_Y209_R213C_YF] was tested, and the phosphorylation enrichment was 0.539.
YPQARYHWLVL [APTX_Y214_K211Q] showed a phosphorylation enrichment of 0.72.
Sequence CERFSYFGMKA [SLC15A2_Y60_YF] has a phosphorylation enrichment of 0.571.
Sequence WFKKFYDANFD [MAPRE2_Y158_YF] has a phosphorylation enrichment of 0.501.
PLQKIYNFNVL [SLC4A1_Y553_T552I_YF] gave a phosphorylation enrichment of 0.743.
Work on IYLADYRIMEG [ALOX12B_Y318] yielded a phosphorylation enrichment of 1.26.
PESIMYWKFTT [NTRK3_Y744_R745W] gave a phosphorylation enrichment of 0.92.
QTLEAYIRWNK [SPAST_Y604] gave a phosphorylation enrichment of 0.703.
In the case of SGGMDYGMVGG [TNRC6B_Y1382], the phosphorylation enrichment is reported as 0.471.
In the case of RKKEEYKMALF [F8_Y1990_YF], the phosphorylation enrichment is reported as 0.734.
GPIEVYLCPEE [E2F3_Y349] gave a phosphorylation enrichment of 0.696.
In the case of TFYQMYDKGLV [IARS2_Y231], the phosphorylation enrichment is reported as 2.49.
In the case of KAIMTYVFSFF [ACTN4_Y260_S262F_YF], the phosphorylation enrichment is reported as 0.553.
ILGRTYFVNHE [NEDD4_Y627_YF] gave a phosphorylation enrichment of 0.526.
For TDEFEYDELIV [TGM1_Y136_YF], the phosphorylation enrichment was 1.12.
In the case of GYRVYYTPDSR [PTPRF_Y451], the phosphorylation enrichment is reported as 2.35.
Work on EEQKKYFNAVK [SCN5A_Y1494_M1498V_YF] yielded a phosphorylation enrichment of 0.482.
Sequence PSFSEYASVQV [SIRPA_Y496] has a phosphorylation enrichment of 6.25.
WCKPPYFSCAV [MMS22L_Y28] gave a phosphorylation enrichment of 0.506.
Sequence ALAAPYVLYPG [CEFIP_Y1332] has a phosphorylation enrichment of 0.565.
For GENTVYAQVFN [LY9_Y603_M602V], the phosphorylation enrichment was 1.53.
Sequence GFRPVYSEDEQ [CHST6_Y362_YF] has a phosphorylation enrichment of 0.754.
In the case of IHETTYNSIKK [ACTA1_Y281_M285K], the phosphorylation enrichment is reported as 0.382.
GDNNIYVTKII [DLG1_Y349_S347N] gave a phosphorylation enrichment of 0.525.
HCHEGYVLHGA [SVEP1_Y2921_I2922V] gave a phosphorylation enrichment of 0.915.
In the case of VKANTYEKYWP [GATM_Y100], the phosphorylation enrichment is reported as 0.59.
PLQKTYNHNVL [SLC4A1_Y553_Y555H] gave a phosphorylation enrichment of 0.576.
In the case of WRVISYHVVVW [ATP13A2_Y50_G49S], the phosphorylation enrichment is reported as 0.582.
In the case of VNFGAYINDFK [GLB1_Y488_YF], the phosphorylation enrichment is reported as 0.545.
EVKRLYGSVCD [TC2N_Y154] was tested, and the phosphorylation enrichment was 0.529.
